Reference: patent publication US20230220008A1 (Bicycle, published 2023)
Starred links: 1 amine or outer side, 2 acyl side, 3 side chain; linkers in the order of their positions; H or OH if unused. Positions of bridges follow the written chain, without caps; N, C: chain ends. Non-standard residues stand in square brackets, D forms with d. No end group written: not given here. BCN = bicyclo[6.1.0]non-4-yn-9-ylmethyl carbonate as carbamate, click handle; TATA = O=C(CC[*:1])N1CN(C(=O)CC[*:2])CN(C(=O)CC[*:3])C1; tBuAla = CC(C)(C)C[C@H](N)C(=O)O; Nle = CCCC[C@H](N)C(=O)O; PYA = propargyl-acid

B1: BCY8095 (peptide)
peptide: Ac-ACIK(BCN)EGQYCFADPY[Nle]CA
modifications: linker 2-9-16 via TATA
notes: Bicyclic peptide monomer; also called Monomer 3-BCN
B2: BCY8948 (peptide)
peptide: Ac-C[tBuAla]PE[dK](PYA)PYCFADPY[Nle]CA
modifications: linker 1-8-15 via TATA; not fully specified
B3: BCY7845 (peptide)
peptide: Ac-ACIEEGK(PYA)YCFADPY[Nle]CA
modifications: linker 2-9-16 via TATA; not fully specified; also: tetramer of four peptide units on central hinge A (TET) via spacer S1A n=10
B4: BCY8965 (peptide)
peptide: Ac-ACIEK(PYA)GQYCFADPY[Nle]CA
modifications: linker 2-9-16 via TATA; not fully specified
B5: BCY9113 (peptide)
peptide: Ac-ACIEK(PYA)GQYCF[dA]DPY[Nle]CA
modifications: linker 2-9-16 via TATA; not fully specified
B6: BCY8957 (peptide)
peptide: Ac-ACIEK(PYA)GQYCFADPY[Nle]CA
modifications: linker 2-9-16 via TATA; not fully specified
B7: BCY8947 (peptide)
peptide: Ac-C[tBuAla]PE[dK](PYA)PYCFADPY[Nle]CA
modifications: linker 1-8-15 via TATA; not fully specified
B8: BCY8959 (peptide)
peptide: Ac-ACIEK(PYA)GQYCFADPY[Nle]CA
modifications: linker 2-9-16 via TATA; not fully specified
B9: BCY8962 (peptide)
peptide: Ac-ACIEK(PYA)GQYCFADPY[Nle]CA
modifications: linker 2-9-16 via TATA; not fully specified
B10: BCY8961 (peptide)
peptide: Ac-ACIEK(PYA)GQYCFADPY[Nle]CA
modifications: linker 2-9-16 via TATA; not fully specified
B11: BCY8927 (peptide)
peptide: Ac-C[tBuAla]PK(PYA)[dA]PYCFADPY[Nle]CA
modifications: linker 1-8-15 via TATA
notes: Bicyclic peptide monomer; also called Monomer 11A
B12: BCY7743 (peptide)
peptide: Ac-ACIEK(PYA)GQYCFADPY[Nle]CA
modifications: linker 2-9-16 via TATA
notes: Bicyclic peptide monomer; also called Monomer 4A
B13: BCY8142 (peptide)
peptide: Ac-ACIEK(BCN)GQYCFADPY[Nle]CA
modifications: linker 2-9-16 via TATA
notes: Bicyclic peptide monomer; also called Monomer 4-BCN
B14: BCY7748 (peptide)
peptide: ACIEEGQYCFADPYXCA
modifications: Ac-A-CiIEEGQYCiiFADPYK(PYA)Ciii-A; Ci, Cii, Ciii cyclised on TATA
notes: Bicyclic peptide monomer; also called Monomer 9A
B15: BCY7746 (peptide)
peptide: Ac-ACIEEGQYCK(PYA)ADPY[Nle]CA
modifications: linker 2-9-16 via TATA
notes: Bicyclic peptide monomer; also called Monomer 7A
B16: BCY7741 (peptide)
peptide: ACIEEGQYCFADPYXCX
modifications: Ac-A-CiIEEGQYCiiFADPY(Nle)Ciii-Dap(PYA); Ci, Cii, Ciii cyclised on TATA
notes: Bicyclic peptide monomer; also called Monomer 2A
B17: BCY8141 (peptide)
peptide: XACIEEGQYCFADPYXCA
modifications: (BCN)-A-CiIEEGQYCiiFADPY(Nle)Ciii-A; Ci, Cii, Ciii cyclised on TATA
notes: Bicyclic peptide monomer; also called Monomer 1-BCN
B18: BCY8143 (peptide)
peptide: Ac-ACIEEGK(BCN)YCFADPY[Nle]CA
modifications: linker 2-9-16 via TATA
notes: Bicyclic peptide monomer; also called Monomer 6-BCN
B19: BCY7745 (peptide)
peptide: Ac-ACIEEGK(PYA)YCFADPY[Nle]CA
modifications: linker 2-9-16 via TATA
notes: Bicyclic peptide monomer; also called Monomer 6A
B20: BCY7740 (peptide)
peptide: XACIEEGQYCFADPYXCA
modifications: (PYA)-A-CiIEEGQYCiiFADPY(Nle)Ciii-A; Ci, Cii, Ciii cyclised on TATA
notes: Bicyclic peptide monomer; also called Monomer 1A
B21: BCY8144 (peptide)
peptide: Ac-ACIEEGQYCK(BCN)ADPY[Nle]CA
modifications: linker 2-9-16 via TATA
notes: Bicyclic peptide monomer; also called Monomer 7-BCN
B22: BCY8097 (peptide)
peptide: ACIEEGQYCFADPYXCA
modifications: Ac-A-CiIEEGQYCiiFADPYK(BCN)Ciii-A; Ci, Cii, Ciii cyclised on TATA
notes: Bicyclic peptide monomer; also called Monomer 9-BCN
B23: BCY8928 (peptide)
peptide: Ac-C[tBuAla]PE[dK](PYA)PYCFADPY[Nle]CA
modifications: linker 1-8-15 via TATA
notes: also called Monomer 12A
B24: BCY7747 (peptide)
peptide: Ac-ACIEEGQYCFADK(PYA)Y[Nle]CA
modifications: linker 2-9-16 via TATA
notes: Bicyclic peptide monomer; also called Monomer 8A
B25: BCY8584 (peptide)
peptide: XACIEEGQYCFADPYXCA
modifications: not fully specified; (PYA)-A-CiIEEGQYCiiF[D-A]DPY[Nle]Ciii-A; Cys on TATA scaffold
B26: BCY8937 (peptide)
peptide: Ac-ACIEK(PYA)GQYCF[dA]DPY[Nle]CA
modifications: linker 2-9-16 via TATA; not fully specified
B27: BCY8581 (peptide)
peptide: XACIEEGQYCFADPYXCA
modifications: not fully specified; (PYA)-A-CiIEEGQYCiiF[D-A]DPY[Nle]Ciii-A; Cys on TATA scaffold
B28: BCY8582 (peptide)
peptide: XACIEEGQYCFADPYXCA
modifications: not fully specified; (PYA)-A-CiIEEGQYCiiF[D-A]DPY[Nle]Ciii-A; Cys on TATA scaffold
B29: BCY8151 (peptide)
peptide: Ac-ACIEEGK(BCN)YCFADPY[Nle]CA
modifications: linker 2-9-16 via TATA; not fully specified; also: trimer of three peptide units on central hinge B (TCA) via spacer S1A n=10
B30: BCY8150 (peptide)
peptide: Ac-ACIEK(BCN)GQYCFADPY[Nle]CA
modifications: linker 2-9-16 via TATA; not fully specified; also: tetramer of four peptide units on central hinge A (TET) via spacer S1A n=10
B31: BCY8583 (peptide)
peptide: XACIEEGQYCFADPYXCA
modifications: not fully specified; (PYA)-A-CiIEEGQYCiiF[D-A]DPY[Nle]Ciii-A; Cys on TATA scaffold
B32: BCY8149 (peptide)
peptide: XACIEEGQYCFADPYXCA
modifications: not fully specified; (BCN)-A-CiIEEGQYCiiFADPY(Nle)Ciii-A; Cys on TATA scaffold
B33: BCY8926 (peptide)
peptide: Ac-ACIEK(PYA)GQYCF[dA]DPY[Nle]CA
modifications: linker 2-9-16 via TATA
notes: Bicyclic peptide monomer; also called Monomer 14A
B34: BCY8925 (peptide)
peptide: Ac-ACIE[dK](PYA)GQYCF[dA]DPY[Nle]CA
modifications: linker 2-9-16 via TATA
notes: Bicyclic peptide monomer; also called Monomer 13A
B35: BCY8935 (peptide)
peptide: XACIEEGQYCFXDPYXCA
modifications: (PYA)-A-CiIEEGQYCiiF[D-A]DPY[Nle]Ciii-A; Ci, Cii, Ciii cyclised on TATA
notes: Bicyclic peptide monomer; also called Monomer 10A
B36: BCY7742 (peptide)
peptide: Ac-ACIK(PYA)EGQYCFADPY[Nle]CA
modifications: linker 2-9-16 via TATA
notes: Bicyclic peptide monomer; also called Monomer 3A

Each binder was assayed against T1, Recombinant human CD137 (R&D systems), biotinylated (human, UniProt Q07011 24-186, biotinylated with EZ-Link Sulfo-NHS-LC-LC-Biotin) (assay: SPR (Biacore), biotinylated human CD137 captured on streptavidin chip, peptide as analyte, 25°C; BCY8095 (Monomer 3-BCN), a separate monomer number from BCY7742).
T1 construct: Bought protein; Captured on a streptavidin chip; also called human CD137 protein; 4-1BB
T1 sequence (Q07011 24-186 limits assumed): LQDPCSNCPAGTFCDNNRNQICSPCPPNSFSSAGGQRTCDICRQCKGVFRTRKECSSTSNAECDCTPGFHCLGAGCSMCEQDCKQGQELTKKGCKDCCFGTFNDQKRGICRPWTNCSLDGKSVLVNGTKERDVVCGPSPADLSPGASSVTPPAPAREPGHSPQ
Protocol: (§1) Biacore experiments were performed to determine kₐ (M⁻¹s⁻¹), kd (s⁻¹), KD (nM) values of monomeric peptides binding to human CD137 protein. […] The protein was desalted to remove uncoupled biotin using spin columns into PBS.
(§2) For analysis of peptide binding, a Biacore T200 or a Biacore 3000 instrument was used with a XanTec CMD500D chip. Streptavidin was immobilized on the chip using standard amine-coupling chemistry at 25° C. with HBS-N(10 mM HEPES, 0.15 M NaCl, pH 7.4) as the running buffer. Briefly, the carboxymethyl dextran surface was activated with a 7 min injection of a 1:1 ratio of 0.4 M 1-ethyl-3-(3-dimethylaminopropyl) carbodiimide hydrochloride (EDC)/0.1 M N-hydroxy succinimide (NHS) at a flow rate of 10 μl/min. For capture of streptavidin, the protein was diluted to 0.2 mg/ml in 10 mM sodium acetate (pH 4.5) and captured by injecting 120 μl of onto the activated chip surface. Residual activated groups were blocked with a 7 min injection of 1 M ethanolamine (pH 8.5) and biotinylated CD137 captured to a level of 270-1500 RU. Buffer was changed to PBS/0.05% Tween 20 and a dilution series of the peptides was prepared in this buffer with a final DMSO concentration of 0.5%. The top peptide concentration was 500 nM with 6 further 2-fold or 3-fold dilutions. The SPR analysis was run at 25° C. at a flow rate of 90 μl/min with 60 seconds association and 900 seconds dissociation. […]
With B1 the Kd was 0.685 nM.

What follows are binders tested against T2, CD137 on Jurkat reporter cells (Promega) (UniProt Q07011 24-255, limits assumed) (assay: cell-based or functional assay).
T2 sequence (Q07011 24-255 limits assumed): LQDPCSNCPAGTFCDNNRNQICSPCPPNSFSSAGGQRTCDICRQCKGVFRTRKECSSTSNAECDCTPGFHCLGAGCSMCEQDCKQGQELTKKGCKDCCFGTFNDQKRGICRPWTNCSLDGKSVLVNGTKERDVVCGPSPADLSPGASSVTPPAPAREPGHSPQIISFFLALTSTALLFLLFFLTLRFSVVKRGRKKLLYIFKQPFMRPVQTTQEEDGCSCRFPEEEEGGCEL
In the case of B2, the “Fold Induction over Background” value is reported as < 2 fold.
With B3 the “Average EC50” value was 0.57 nM and the Average fold induction was 6.3 fold.
For B4, the “Fold Induction over Background” value was < 2 fold.
B5 was tested, and the “Fold Induction over Background” value was < 2 fold.
B6 was tested, and the “Fold Induction over Background” value was < 2 fold.
In the case of B7, the “Average Fold EC50 Improvement relative to BCY7845” value is reported as 1.33 fold and the “Average Relative Fold Induction relative to BCY7845” value is reported as 0.62 fold.
With B8 the “Fold Induction over Background” value was < 2 fold.
B9 was tested, and the “Fold Induction over Background” value was < 2 fold.
For B10, the “Fold Induction over Background” value was < 2 fold.

Each binder was assayed against T1, Recombinant human CD137 (R&D systems), … (assay: SPR (Biacore), biotinylated human CD137 captured on streptavidin chip, peptide as analyte, 25°C).
Protocol: as §1
For analysis of peptide binding, a Biacore T200 or a Biacore 3000 instrument was used with a XanTec CMD500D chip. Streptavidin was immobilized on the chip using standard amine-coupling chemistry at 25° C. with HBS-N(10 mM HEPES, 0.15 M NaCl, pH 7.4) as the running buffer. Briefly, the carboxymethyl dextran surface was activated with a 7 min injection of a 1:1 ratio of 0.4 M 1-ethyl-3-(3-dimethylaminopropyl) carbodiimide hydrochloride (EDC)/0.1 M N-hydroxy succinimide (NHS) at a flow rate of 10 μl/min. For capture of streptavidin, the protein was diluted to 0.2 mg/ml in 10 mM sodium acetate (pH 4.5) and captured by injecting 120 μl of onto the activated chip surface. Residual activated groups were blocked with a 7 min injection of 1 M ethanolamine (pH 8.5) and biotinylated CD137 captured to a level of 270-1500 RU. Buffer was changed to PBS/0.05% Tween 20 and a dilution series of the peptides was prepared in this buffer with a final DMSO concentration of 0.5%. The top peptide concentration was 500 nM with 6 further 2-fold or 3-fold dilutions. The SPR analysis was run at 25° C. at a flow rate of 90 μl/min with 60 seconds association and 900 seconds dissociation. After each cycle a regeneration step (10 μl of 10 mM glycine pH 2) was employed. Data were corrected for DMSO excluded volume effects as needed. All data were double-referenced for blank injections and reference surface using standard processing procedures and data processing and kinetic fitting were performed using Scrubber software, version 2.0c (BioLogic Software). Data were fitted using simple 1:1 binding model allowing for mass transport effects where appropriate.
Work on B11 yielded a Kd of 12.3 nM.
B12 showed a Kd of 101 nM.
B13 gave a Kd of 321 nM.
Work on B14 yielded a Kd of 264 nM.
With B15 the Kd was 260 nM.
Binder B16 has a Kd of 122 nM.
For B17, the Kd was 57.8 nM.
B18 gave a Kd of 112 nM.
In the case of B19, the Kd is reported as 63.1 nM.
B20 gave a Kd of 88 nM.
For B21, the Kd was 66.7 nM.
B22 showed a Kd of 99.4 nM.
B23 gave a Kd of 11.4 nM.
B24 gave a Kd of 361 nM.

Molecular target: T2, CD137 on Jurkat reporter cells (Promega)
Experiment: cell-based or functional assay
Remark: another data set of the same source
B25 was tested, and the “Fold Induction over Background” value was < 2 fold.
B26 was tested, and the “Fold Induction over Background” value was < 2 fold.
In the case of B27, the “Fold Induction over Background” value is reported as < 2 fold.
B28 was tested, and the “Fold Induction over Background” value was < 2 fold.
B29 was tested, and the “Average Fold EC50 Improvement relative to CD137L” value was 213 fold and the “Average Relative Fold Induction relative to CD137L” value was 0.49 fold.
With B30 the “Average Fold EC50 Improvement relative to CD137L” value was 4.14 fold and the “Average Relative Fold Induction relative to CD137L” value was 0.77 fold.
For B31, the “Average Fold EC50 Improvement relative to CD137L” value was 0.031 fold and the “Average Relative Fold Induction relative to CD137L” value was 3.14 fold.
In the case of B32, the “Average Fold EC50 Improvement relative to CD137L” value is reported as 140 fold and the “Average Relative Fold Induction relative to CD137L” value is reported as 0.93 fold.

These binders were tested against T1, Recombinant human CD137 (R&D systems), … (assay: SPR (Biacore), biotinylated human CD137 captured on streptavidin chip).
B33: no binding (tested: No binding up to 5 µM).
B34: no binding (tested: No binding up to 5 µM).
B35: no binding (tested: No binding up to 5 µM).

Each binder was assayed against T1, Recombinant human CD137 (R&D systems), … (assay: SPR (Biacore), biotinylated human CD137 captured on streptavidin chip, peptide as analyte, 25°C; BCY7742 (Monomer 3A), a separate monomer number from BCY8095).
Protocol: as §1, §2
With B36 the Kd was 855 nM.
